Where two headings read alike, the source gives them in different places.
Legend:
[1] = system: activated T cells in PBMCs; assay: Cytokine and Granzyme-B secretion by anti-CD3 activated PBMCs (Luminex); type: cell-based; conditions: 100 nM, 72 hours, 5 donors, compared to KB_A12
Description: Methods for measuring cytokine release from T cells are well known to those skilled in the art (eg Tarcha et al, (2012) J Pharmacology and Experimental Therapeutics, 342 p642-653). Peripheral blood mononuclear cells (PBMCs) were isolated from 5 healthy donors and were simulated by culturing in 96-well plates pre-coated with 500 ng/ml of the anti-CD3 antibody OKT3 (ebioscience, Cat. No. 16-0037-85). PBMCs were suspended at 2 × 10^6 cells/ml and 100 ul of cells suspension mixed with 100 ul of test sample (KB_A12_ShK) or positive control (free ShK toxin, Alomone labs, STS-400) or negative control (parental KnotBody KB_A12) at a final concentration of 100 nM. (Samples were in triplicate for KB_A12_ShK or duplicate for KB_A12 and free ShK). Cells were incubated at 37° C. for 72 hours, centrifuged at 1500 rpm for 5 mins at room temperature before removing 150 ul of supernatant. After 72 hours incubation, the concentration of cytokines and Granzyme-B was determined using a Luminex bead based assay according to manufacturers instructions (Thermo Fisher).

human Kv1.3 (huKv1.3) = target: T1, human Kv1.3 (huKv1.3) (Homo sapiens, UniProt P22001); assay: QPatch automated patch-clamp, CHO cells stably expressing human Kv1.3 (Examples 19-21); type: cell-based
T1 construct: host or cells: CHO
In short: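 Whole-cell currents were recorded in extracellular solution of 145 mM NaCl, 4 mM KCl, 2 mM CaCl2, 1 mM MgCl2, 10 mM HEPES, 10 mM glucose (pH 7.4), with a KF/KCl/EGTA pipette solution (pH 7.2). From -80 mV, +30 mV pulses of 300 ms were applied every 10 s, with four ascending KnotBody concentrations added extracellularly. Peak outward current was averaged (n = 3-6) and IC50 fitted from concentration-response curves.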

T1 sequence (P22001 whole entry): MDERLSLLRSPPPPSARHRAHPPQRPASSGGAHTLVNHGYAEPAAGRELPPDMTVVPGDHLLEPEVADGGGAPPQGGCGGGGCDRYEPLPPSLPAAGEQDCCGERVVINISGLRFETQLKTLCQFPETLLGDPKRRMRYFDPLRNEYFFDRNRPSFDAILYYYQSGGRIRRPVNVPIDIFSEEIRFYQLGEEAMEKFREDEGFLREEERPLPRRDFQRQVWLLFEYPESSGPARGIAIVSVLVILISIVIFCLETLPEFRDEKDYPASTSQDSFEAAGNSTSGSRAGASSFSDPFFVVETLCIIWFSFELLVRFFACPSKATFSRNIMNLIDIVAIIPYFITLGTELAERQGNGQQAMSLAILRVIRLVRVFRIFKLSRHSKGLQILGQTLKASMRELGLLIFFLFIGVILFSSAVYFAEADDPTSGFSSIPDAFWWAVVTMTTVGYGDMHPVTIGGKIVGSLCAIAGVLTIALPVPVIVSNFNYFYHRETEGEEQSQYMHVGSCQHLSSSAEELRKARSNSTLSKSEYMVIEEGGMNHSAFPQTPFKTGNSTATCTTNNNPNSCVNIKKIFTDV

B1: KB_A12_ShK: ShK toxin in VL CDR2 of KB_A12, IgG1 (antibody, V domains shown)
VH: EVQLVESGGGLVRPGGSLRLSCAASGFTFSSYAMSWVRQAPGKGLEWVSAISGSGGSTYYADSVKGRFTISRDNTKNSLYLQMTSLRADDTAFYYCVKDFGPGYGTGWFDYWGPGTLVTVSS
VL: QSVLTQPPSVSEAPRQRVTITCSGSSSNIGNNAVNWYQQLPGKAPKLLIYAAGRRSCIDTIPKSRCTAFQCKHSMKYRLSFCRKTCGTCANSGVSDRFSAAKSGTSASLAINGLRSEDEADYYCAAWDDSLNGYVFGTGTKLTVLG
Secretion of Granzyme B [1]: reduced
Secretion of Interferon gamma [1]: reduced
Secretion of TNF-alpha [1]: reduced
Secretion of interleukin-17A [1]: reduced
Fold difference (human Kv1.3 (huKv1.3); Kv1.1 IC50 over Kv1.3 IC50, Table E20): 3
IC50 (human Kv1.3 (huKv1.3); four-point curves of FIG. 33, Table E20, read-out: Kv1.3 IC50): 13 nM
IC50 (human Kv1.3 (huKv1.3); huKv1.3, four-point curves of FIG. 32, Table E19, read-out: IC50): 8.6 nM

— patent US20230331827A1, “POTASSIUM CHANNEL INHIBITORS” (priority 2017, published 2023)
